± gives the standard deviation of the averaged measurements.
B1: library; a variant is named by its letters at N, in order (parent)
chain: AATGTTGTTGATGCAACCATAAAGTGATATTTAATAATTATTTATAATCAGCAACTTAACCACAAAACAACCATATATTGATATNTCACAAAACAACCATAANTTGATATTTTTGTGAATCGAGTATTTCAGCAAAACTACTGCAGTAAGAA

What was measured:
[1] = variants of: B1; test: relative integration efficiency (T-LR orientation) vs wild-type transposon end (log2 (normalized fold change)); transposon end mutated: left end; higher = more efficient transposition; settings: with VchCAST RNA-guided transposition machinery (E. coli BL21(DE3) host, lacZ target)
Outline: (§1)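 Barcode abundances in input plasmids and in genomic integration junctions were obtained by PCR amplification and Illumina sequencing. These came from E. coli BL21(DE3) co-transformed with a T7-driven effector plasmid and a pUC57 donor carrying 1549 left-end or 1849 right-end transposon variants, then plated with 0.1 mM IPTG at 37°C for 18 h. Relative integration efficiency is the output/input fold change, normalised to reference barcodes and log-transformed.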

[2] = variants of: B1; test: relative integration efficiency (T-RL orientation) vs wild-type transposon end (log2 (normalized fold change)); transposon end mutated: left end; higher = more efficient transposition; settings: with VchCAST RNA-guided transposition machinery (E. coli BL21(DE3) host, lacZ target)
Outline: as §1

Variant | relative integration efficiency (log2) [1] | relative integration efficiency (log2) [2]
CG G115T | 0.42 ± 0.24 | 0.238 ± 0.1
CG A34C T35G A36C A37C | 0.532 ± 0.072 | 0.175 ± 0.24
CG C14G A15T A16T C17G | -1.31 ± 0.38 | -1.26 ± 0.49
CG A107G | -0.592 ± 0.8 | -0.554 ± 0.26
CG T100A | 0.42 ± 1 | 0.66 ± 0.49
TA A16C G24T T30A T76A T78G C87A T104G T113A | -0.0106 ± 0.39 | -0.0789 ± 0.27
CG C55G T56A | 0.0301 ± 0.44 | 0.0691 ± 0.024
CG A62C C63A | -0.193 ± 0.12 | 0.182 ± 0.065
TA G24A T30A A70C T76A T86G A102T T111C T113C | -0.456 ± 0.08 | -0.229 ± 0.18
CG T108A A109T | -0.852 ± 0.53 | -0.848 ± 0.47
CG A66T A67T C68G A69T | -1 ± 0.9 | -0.447 ± 0.35
CG G24C T78A T104A | -0.403 ± 0.24 | -0.396 ± 0.19
CG A40G T42G T43A A44G T45C A46G A47G T48A C49T G51A | -1.07 ± 0.8 | -1.29 ± 0.32
CG G4C T5A | 0.189 ± 0.31 | 0.0402 ± 0.15
CG A81T T82A | -1.34 ± 0.81 | -1.03 ± 0.48
CG A70C C71A C72A A73C | -2 ± 1.7 | -2.13 ± 0.84
CG A67C | -0.106 ± 0.44 | -0.129 ± 0.051
CG A67G | -0.325 ± 0.26 | -0.269 ± 0.083
CT A102C T104G T105G | -1.62 ± 0.69 | -1.98 ± 0.87
CG T6G G7T T8G T9G | < -10 | -7.37 ± 0.95
TA A16C G24T T32G A33C T76A T78A T84A C87A T104A T110A T113A | -0.781 ± 0.91 | -0.706 ± 0.26
CG T5A T6A | < -10 | -6.46 ± 0.12
CG T100G A101C | -3.81 ± 1.3 | -2.16 ± 0.7
CG T104A T105A | -0.853 ± 0.48 | -0.642 ± 0.47

Variant | relative integration efficiency (log2) [1] | relative integration efficiency (log2) [2]
CG C18A A19C | -1.46 ± 0.83 | -1.68 ± 0.79
CG T39C | 0.161 ± 0.47 | 0.0645 ± 0.011
CG T39G | 0.304 ± 0.45 | 0.00997 ± 0.055
TA A16C G24T T32G A33C T76A A77G C87T A96C T112G T113C | -0.88 ± 1.2 | -0.489 ± 0.45
CG A46T A47T T48A C49G | 0.192 ± 0.37 | 0.00752 ± 0.28
CG A107C T108G A109C T110G | -2.3 ± 1.2 | -1.64 ± 0.79
CG A23T G24C T25A G26C | -2.69 ± 1.5 | -2.6 ± 0.78
CG T12G G13T | -0.641 ± 0.4 | -0.29 ± 0.15
CA A16C G24T T32G A33C T104A T110A T113A | -0.927 ± 0.11 | -0.976 ± 0.39
CG T32A T86A T112A | 0.255 ± 0.42 | -0.0963 ± 0.053
CA | 0.637 ± 0.24 | 0.299 ± 0.068
GG T84A T86A C87G | 0.0518 ± 0.56 | -0.036 ± 0.31
CG A1T A2T T3A G4T T5A | -0.359 ± 0.037 | -0.373 ± 0.043
CG T79C | -0.488 ± 0.74 | -0.605 ± 0.26
CG A59T | 0.107 ± 0.13 | 0.0634 ± 0.055
CG G115C T116A G117C A118T | 0.334 ± 0.11 | -0.12 ± 0.028
CG T111A T112A | -0.101 ± 0.79 | -0.479 ± 0.31
CG A73T | -0.055 ± 0.17 | -0.536 ± 0.45
CG A73G | 0.14 ± 0.13 | 0.0329 ± 0.31
CG A73C | -2.78 ± 1.5 | -1.14 ± 0.6
CG T20A | -0.647 ± 0.083 | -0.343 ± 0.17
CG A95T | -0.598 ± 0.89 | -0.00814 ± 0.24
TA A23G G24T A33T T76A A77G C87T A102T T111C T113C | -0.439 ± 0.39 | -0.836 ± 0.54
CG A33T C87G T113A | 0.02216 ± 0.00015 | -0.157 ± 0.2

Variant | relative integration efficiency (log2) [1] | relative integration efficiency (log2) [2]
CG A37G | 0.434 ± 0.033 | 0.146 ± 0.027
CG A101C | -1.67 ± 0.92 | -1.29 ± 0.49
CG A58T | -1.76 ± 1.7 | -0.0803 ± 0.089
CG A101C A102C | -1.64 ± 0.96 | -1.55 ± 0.55
CG A92G | -0.495 ± 0.53 | -0.563 ± 0.18
CG A92T | 0.606 ± 0.37 | -0.0452 ± 0.064
CG A23G G24T A33T | 0.0764 ± 0.17 | -0.108 ± 0.099
CG A59T C60G C61G A62T | 0.314 ± 0.15 | 0.00645 ± 0.092
TA A23G G24T A33T A70C T76A T84A C87A A96C T112G T113C | 0.304 ± 0.89 | 0.137 ± 0.19
CG T78G | 0.198 ± 0.14 | -0.0793 ± 0.054
CG G13T C14A | -1.46 ± 1.2 | -0.416 ± 0.31
CG T5C | -0.291 ± 0.23 | -0.319 ± 0.008
CG T25A T79A T105A | -3.4 ± 0.079 | -1.88 ± 0.86
CC A23T G24C A77T T78A T104A | -0.642 ± 0.69 | -0.611 ± 0.28
CG A118T | -0.185 ± 0.24 | -0.0188 ± 0.11
TA A16C G24T T32G A33C A70C T76A T86G A102T T111C T113C | -1.2 ± 0.65 | -0.838 ± 0.29
CG C63A A64C | 0.557 ± 0.37 | -0.135 ± 0.079
CG A36C A37C T38G T39G | -0.25 ± 0.0025 | -0.22 ± 0.14
CG T76A A77T T78A T79A | -0.702 ± 1.2 | -0.611 ± 0.38
CG T125G | 0.265 ± 0.28 | -0.0179 ± 0.099
CG A44C | -0.0239 ± 0.24 | 0.147 ± 0.068
CG T48A C49A A50T C52T A53G C55G T56C T57G A59G C60T C61A A66C A67C | 0.607 ± 0.81 | -5.05 ± 1.9
CG A23C G24T T25G G26T | -1.99 ± 0.63 | -1.12 ± 0.49
CG A67T C68G A69T A70T | -1.78 ± 0.54 | -1.55 ± 0.73

Variant | relative integration efficiency (log2) [1] | relative integration efficiency (log2) [2]
TA T76A T78G C87A A96C T110A T113A | -0.0777 ± 0.55 | -0.0885 ± 0.14
CG C60T | 0.161 ± 0.34 | -0.00379 ± 0.0024
CG A65T A66T | 0.447 ± 0.39 | 0.107 ± 0.0079
CG T113G T114G G115T T116G | -0.271 ± 0.14 | -0.144 ± 0.053
CG T5G T6G | < -10 | 
TA G24A T30A T76A A77G C87T T104G T113A | 0.395 ± 0.079 | -0.232 ± 0.36
CG G7C | -0.0662 ± 0.49 | -0.11 ± 0.25
CG A27C T28G A29C T30G | -2.34 ± 1.1 | -2.43 ± 0.93
CG A37T T38A | 0.156 ± 0.25 | 0.191 ± 0.1
CG A36T | 0.0771 ± 0.068 | 0.0168 ± 0.042
TA A22T G24T T31C A33C A70C T76A T84A C87A A96C T112G T113C | -0.665 ± 0.33 | -0.334 ± 0.36
CG G24A T30A | 0.342 ± 0.15 | 0.261 ± 0.027
CG A65T | 0.125 ± 0.051 | 0.0807 ± 0.096
TA A22T G24T T31C A33C A70C T76A T86G A96C T112G T113C | -0.771 ± 0.36 | -0.328 ± 0.2
CG G10T A11C T12G G13T | -4.3 ± 0.89 | -1.43 ± 0.49
CG T3A G4C | -0.231 ± 0.33 | 0.0698 ± 0.073
CG T104G T105G G106T A107C | -2.25 ± 1.7 | -2.11 ± 0.66
CT A102C | -1.29 ± 0.9 | -0.973 ± 0.41
CG T6A | < -10 | -6.68 ± 0.076
CG T56G T57G A58C A59C | -2.31 ± 0.94 | -1.82 ± 0.62
CG A15C | 0.321 ± 0.27 | 0.0839 ± 0.1
CA A96C T112G T113C | -0.564 ± 0.17 | -0.326 ± 0.1
CG A107C T108G | -0.997 ± 1.2 | -1.01 ± 0.6
CG T38C | 0.236 ± 0.068 | -0.0081 ± 0.1

Variant | relative integration efficiency (log2) [1] | relative integration efficiency (log2) [2]
CG A44C T45G A46C A47C | 0.0873 ± 0.37 | -0.21 ± 0.22
CG T113A T114A G115C T116A | -0.0852 ± 0.079 | 0.0572 ± 0.12
TG A16C G24T T32G A33C A70C T76A T86G | -0.468 ± 0.42 | -0.731 ± 0.36
CG A91T A92T A93T C94G | -1.3 ± 1.2 | -1.4 ± 0.69
CG A47T T48A C49G A50T | -1.26 ± 1.6 | -0.735 ± 0.52
CG A15C A16C | -0.641 ± 0.48 | 0.081 ± 0.27
CG T112G T113G T114G G115T | -0.51 ± 0.098 | -0.359 ± 0.072
CG G13T C14A A15C A16C | -1.69 ± 1.1 | -0.389 ± 0.12
AG T30G T31G T32G A33C T84G T86G C87A T110G T111G T112G T113G | -2.2 ± 1.2 | -2.54 ± 0.82
CG A75T T76A | -0.104 ± 0.2 | -0.129 ± 0.13
CG A2T T3A G4C T5A | -0.131 ± 0.037 | -0.0191 ± 0.036
CG G80T A81C | -1.7 ± 0.97 | -1.51 ± 0.7
CG A95C A96C C97A C98A | -1.32 ± 1.8 | -2.14 ± 0.8
CG C61A A62C C63A A64C | -0.0245 ± 0.0054 | 0.137 ± 0.14
CG T45G A46C | 0.396 ± 0.26 | -0.219 ± 0.2
CG C94A A95C | -0.623 ± 0.98 | -0.474 ± 0.4
CG T114G G115T T116G G117T | -0.295 ± 0.33 | -0.309 ± 0.015
CG T114G G115T T116G G117T A118C A119C T120G C121A G122T A123C G124T T125G | 0.318 ± 0.049 | 0.295 ± 0.074
TA G24A T30A A70C T76A T86G A96C T112G T113C | 0.18 ± 0.5 | 0.313 ± 0.07
CG T86C | 0.176 ± 0.013 | -0.261 ± 0.092

— the supplement of paper PMC10201428
